The values below come from paper PMC6385231, “Activity-Regulated Cytoskeleton-Associated Protein (Arc/Arg3.1) is Transiently Expressed after Heat Shock Stress and Suppresses Heat Shock Factor 1” (Scientific Reports, 2019).

The experiment deals with T1, GST-tagged human HSF1 (human, UniProt Q00613 1-529).
T1 construct: Heat shock factor 1 (HSF1), human (hHSF1); The authors surmise that GST dimers induce HSF1 oligomerisation; also called GST-HSF1; GST-hHSF1
T1 sequence (looked up): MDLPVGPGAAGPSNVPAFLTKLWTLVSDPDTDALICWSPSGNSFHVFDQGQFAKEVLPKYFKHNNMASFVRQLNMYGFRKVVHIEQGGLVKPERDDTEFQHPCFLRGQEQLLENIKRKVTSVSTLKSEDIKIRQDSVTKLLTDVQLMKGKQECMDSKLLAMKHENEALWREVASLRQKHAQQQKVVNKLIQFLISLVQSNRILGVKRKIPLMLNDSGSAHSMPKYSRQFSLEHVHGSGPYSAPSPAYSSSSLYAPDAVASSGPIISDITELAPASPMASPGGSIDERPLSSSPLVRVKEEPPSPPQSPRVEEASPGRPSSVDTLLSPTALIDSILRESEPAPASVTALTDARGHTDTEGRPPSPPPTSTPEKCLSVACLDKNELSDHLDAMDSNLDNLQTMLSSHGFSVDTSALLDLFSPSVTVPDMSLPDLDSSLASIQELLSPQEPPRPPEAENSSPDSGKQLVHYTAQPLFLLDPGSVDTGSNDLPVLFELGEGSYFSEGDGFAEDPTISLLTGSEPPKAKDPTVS
The experiment is described as follows: pull-down; GST or GST-hHSF1 on glutathione-agarose beads incubated with purified His-Arc in 20 mM MOPS pH 7.2, 100 mM KCl, 0.5% Tween, 2 μg/mL aprotinin, 3 h at 4°C; Western analysis with anti-GST and anti-Arc; with and without heat shock treatment. The following applies: both partners purified.

B1: His-tagged human Arc/Arg3.1 (natural protein, UniProt Q7LC44 1-396, looked up)
chain: MELDHRTSGGLHAYPGPRGGQVAKPNVILQIGKCRAEMLEHVRRTHRHLLAEVSKQVERELKGLHRSVGKLESNLDGYVPTSDSQRWKKSIKACLCRCQETIANLERWVKREMHVWREVFYRLERWADRLESTGGKYPVGSESARHTVSVGVGGPESYCHEADGYDYTVSPYAITPPPAAGELPGQEPAEAQQYQPWVPGEDGQPSPGVDTQIFEDPREFLSHLEEYLRQVGGSEEYWLSQIQNHMNGPAKKWWEFKQGSVKNWVEFKKEFLQYSEGTLSREAIQRELDLPQKQGEPLDQFLWRKRDLYQTLYVDADEEEIIQYVVGTLQPKLKRFLRHPLPKTLEQLIQRGMEVQDDLEQAAEPAGPHLPVEDEAETLTPAPNSESVASDRTQPE
notes: Arc/Arg3.1 (activity-regulated cytoskeleton-associated protein), human (hArc/Arg3.1); The construct and its purification are not described in the methods; also called His-Arc; His-Arc/Arg3.1; source: purified
For the molecule B1, the binding result was “binds”.
